Tests used:
[1] = system: tumors; experiment: Tumor imaging experiments with SapC peptide nanovesicles; format: in vivo, mice; conditions: peptide in phospholipid (e.g., DOPS) nanovesicles
Description: The nanovesicles are stable and relatively uncomplicated to make. […] For example, our fluorophore-nanovesicles offer a rapid and precise imaging method for seeing and measuring the change in tumor size of living mice. The tissue-homing, imaging nanovescicles of the present invention enable the researchers and physicians to determine the location and size of a broad range of tumors, including hidden, metastatic tumors.
Several saposin C peptides were synthesized to test their activity in the nanovesicles. […] In one embodiment, the peptide comprises one of more sequences selected from the groups MCS, LCS, and VCS within the peptide sequence. In certain embodiments, amino acids, such as Lys or Cys, are required for the tumor-homing effect.

[2] = Stopped-flow Trp fluorescence of saposin C/liposome complex formation; format: binding; conditions: PS(18:1,1) or BPS vesicles
Description: To investigate temporal and spatial interactions of saposins and liposomal membrane, fluorescence stopped-flow and quenching approaches are used with Trp as the intrinsic fluorescence probe of the saposins. These experiments allow identification of regional interactions between saposins and lipid bilayers, and also the kinetics of their binding.
This binding induces change is lipid-concentration dependent and requires at least one unsaturated fatty acid chain. To evaluate the kinetics of this interaction, stopped-flow experiments are conducted the change in fluorescence during saposin C/liposome complex formation is monitored. When saposin C(0W) is mixed with PS(18:1,1) or BPS vesicles, fluorescence of Trp is increased, but the time course of this change is undetectable due to limitation of the machine's capability. Apparently, the interaction of saposin C and unsaturated PS containing membranes occurs within at least 10 ms.

[3] = R18 dequenching stopped-flow membrane fusion assay; conditions: R18-labeled and unlabeled PS(18:1,1) vesicles
Description: Fluorescence probes have been widely used to determine membrane fusion, such as fluorescence dequenching, and fluorescence resonance energy transfer (FET), and can be used for quantitative and kinetics analyses. The dequenching approach is used to investigate saposin C's fusogenic activity. Octadecyl rhodamine B (R18) is selected as fluorescence probe and is entrapped in internal aqueous compartment of liposomal vesicles by co-sonication with BPS or PS(18:1,1).
Fluorescence increase (dequenching) of R18 occurs upon R18 concentration decreases. After non-labeled and labeled vesicles fuse, the R18 concentration is diluted, resulting in an increase in intensity of fluorescence. R18-labeled vesicles (lipid:R18=96:4, mol:mol) are mixed with the same lipid vesicles without fluorescence probe. Stopped-flow assays are conducted to quickly mix these vesicles with saposin C or Ca^2+ ion. Time-trace curves are generated for kinetic analysis.

[4] = Vesicle size change determination (N4 plus submicron particle sizer)
Description: The amino acid residues 51-67 are necessary, but not sufficient, for its optimal enzymatic activation function. The disulfide structure and conformational alteration of saposin C upon lipid binding are also required for this activity. Three approaches are used for this study: (1) stopped-flow monitoring reduction of self-quenching resulting from fusion of fluorescence probe-containing vesicle with non-fluorescent vesicle induced by saposin C; (2) monitoring the lipid vesicle size changes upon addition of saposin C to vesicles, the size distribution as determined using N4 plus submicron particle sizer (Coulter Co.); (3) monitoring intrinsic fluorescence of Trp-saposin C change during liposomal fusion.
Electron microscopy (EM) is used for vesicle fusion analysis, since the size of fused vesicles is bigger than those of non-fused. N4 plus submicron particle size is used to estimate particle sizes in the range of 3 nm to 3 um since most liposomes fit in this range. Sonication conditions with a cup sonicator give mono-dispersed BPS-liposomes with ˜200 nm in size. Upon addition of saposin C, these vesicles change to a larger size up to 2-3 um. The size increase is related to vesicles fusion as shown by the above dequenching experiments.
Saposin C promotes the size changes at ˜50 nM concentration. To define the regions responsible for this fusion property, peptides containing only 50% of the NH2-terminal or 50% of the COOH-terminal halves in saposin C are tested. Both peptides show fusion activity.

[5] = Fusion mechanism study with preformed saposin C-PS(18:1,1) liposome complexes
Description: Protein conformational changes are thought to play a role in protein-mediated membrane fusion. This fusion mechanism is evaluated using saposin C-dependent membrane fusion. First, saposin C-PS(18:1,1) liposome complexes are formed. In this saposin C-anchored membrane, protein conformation is altered. This complex is stable from pH 3 to 10, and in low concentrations of SDS solution.
Since the Trp in saposin C(0W) is embedded inside of lipid bilayer, the change of its signal is indicative of that the surrounding environment of Trp has been changed. After about 20 to 30 ms, Trp fluorescence signal decreases to the starting level. […] Shortly after this, the signal drops back to starting level signaling on end of the fusion process. […] Therefore, a conformational change of saposin C upon lipid binding is […] for its fusogenic activity.

[6] = molecular target: T1, acid β-glucosidase (Homo sapiens, UniProt P04062); experiment: Activation of acid β-glucosidase in liposomal reconstitution system; format: biochemical
T1 sequence (P04062 40-536): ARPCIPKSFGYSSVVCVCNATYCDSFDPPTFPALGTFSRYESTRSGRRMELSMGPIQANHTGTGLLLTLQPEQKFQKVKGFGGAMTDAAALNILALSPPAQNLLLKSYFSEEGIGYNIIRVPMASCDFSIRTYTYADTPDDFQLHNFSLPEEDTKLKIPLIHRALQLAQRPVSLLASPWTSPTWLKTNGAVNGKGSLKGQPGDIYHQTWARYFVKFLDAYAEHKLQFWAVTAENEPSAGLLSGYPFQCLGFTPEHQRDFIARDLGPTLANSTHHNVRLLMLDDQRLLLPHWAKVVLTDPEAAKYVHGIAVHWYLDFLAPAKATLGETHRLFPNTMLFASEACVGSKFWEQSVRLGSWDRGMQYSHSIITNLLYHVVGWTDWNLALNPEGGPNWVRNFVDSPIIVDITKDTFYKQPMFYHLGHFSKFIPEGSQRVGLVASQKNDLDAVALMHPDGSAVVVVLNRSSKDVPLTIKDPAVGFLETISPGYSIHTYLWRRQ
Description: Functional saposins were overexpressed in BL21(DE3) cells using a pET 21a series vector. Following IPTG induction at 37° C. or 30° C., large amounts of saposins containing His•Tag were found in the soluble fraction of the disrupted cells. These were conveniently purified to electrophoretic homogeneity on nickel-loaded columns. Alternatively, saposins without His•Tag were generated by introducing a stop codon after protein coding region, and then purified using immuno-affinity columns with T7-taq monoclonal antibody. […] Circular dichroism spectra, light scattering, and ES_MS analyses were used to evaluate the physical properties of the purified saposins, such as aggregation status and molecular weight. Trp-saposins without His•Tag were also generated for necessary control experiments. The functional integrity of recombinant saposin C is determined using delipidated and homogenous acid β-glucosidase in a liposomal reconstitution system and in neuritogenic assays. Recombinant saposin B function is determined using a sulfatide binding assay.

[7] = system: cultured mouse cortical and hippocampal neurons; experiment: Transport into cultured neurons; format: cell-based; conditions: facilitated by complexes with DOPS liposomes
Description: Saposin C can be transported into endosomal and lysosomal compartments using saposin-C liposomes containing long-chain anionic phospholipids. This method can be used for the treatment of neurological diseases including, for example, those in which MVB accumulation contributes to pathology and progression of disease.
Primary Cortical Neuron Cultures—Cortical neurons are cultured in serum-free Neuroblasal medium with B27 supplements as described by Whitmarsh et al.^44 Take out E16 mouse embryos, cut the head and place them into ice-cold Ca/Mg-free Hank Balance Salt Solution (HBSS) with papain (1 mg/ml). The brain is dissected out and place scalpel along the dorsal midline between the two cerebral hemispheres but slightly deviate towards to the side as it cut. This will give a clean cerebral cortex. Peel out the meninges gently without touching the medial side of the cortex where the hippocampus is located. Cut out the cortex with curved fine surgical scissors and collect them in ice-cold HBSS. The cortical tissue is replaced in papain HBSS solution for 15-20 minutes at room temperature to soften up the tissues. Transfer them to papain-inhibitor solution for another 5 minutes at room temperature and finally back to 2 ml ice-cold HBSS. Fisherbran 12-546 (18CIR-2) coverglasses in 12-well plate are coated with PEI containing laminin overnight. […]

Molecule: FDKMCSKLPK [F32 to K41]
- tumor-homing function [1]: tumor-homing function

Molecule: KSLSEECQEVVDTYGSSILSILLEEVSPELVCSMLHLCSG [Saposin K41-G80, SapC peptide K41-G80]
- tumor-homing function [1]: tumor-homing function

Molecule: SPELVCSMLHLCSG [Saposin S67-G80, SapC peptide S67-G80]
- tumor-homing function [1]: tumor-homing function

Molecule: EVCEFLVKEVTKLIDNNKTEKEILDAFDKMCSKLP [Saposin E6-P40, SapC peptide E6-P40]
- tumor-homing function [1]: tumor-homing function

Molecule: EKEILDAFDKMCSKLPK [Saposin E24-K41]
- tumor-homing function [1]: optimal tumor-homing function

B1: Saposin C: saposin C (SapC, a small lysosomal protein, 80 AA); recombinant, produced in E. coli (protein)
chain: SDVYCEVCEFLVKEVTKLIDNNKTEKEILDAFDKMCSKLPKSLSEECQEVVDTYGSSILSILLEEVSPELVCSMLHLCSG
modifications: left off: small tags and cut ends
notes: saposin C (SapC, a small lysosomal protein, 80 AA); recombinant, produced in E. coli
- time within which interaction with unsaturated PS containing membranes occurs [2]: ≤ 10 ms
- kinetics of induced membrane fusion [3]: the same kinetics as those with Ca^2+
- concentration that promotes the size changes [4]: ~50 nM
- vesicle size upon addition of saposin C ([4]; mono-dispersed BPS-liposomes of ˜200 nm before addition): 2-3 um
- vesicle size change ([4]; pH 4.7, 10 min period): enlarges vesicle size
- vesicle size change ([4]; pH 7.4, 10 min period): not
- fusogenic activity when bound to lipid membrane [5]: retains the fusogenic activity
- activation of acid β-glucosidase ([6]; purified recombinant protein): excellent activation
- transport into neurons [7]: transported into the cultured mouse cortical and hippocampal neurons

B2: saposin C(S37W): saposin C with a Trp at residue 37 (i.e., in the middle) (protein, UniProt P07602 311-390, looked up, variant S37W)
Saposin-C: SDVYCEVCEFLVKEVTKLIDNNKTEKEILDAFDKMCWKLPKSLSEECQEVVDTYGSSILSILLEEVSPELVCSMLHLCSG
modifications: Saposin-C
- effect of Trp substitution on activation properties [6]: no effect

— US20120020878A1, “FUSOGENIC PROPERTIES OF SAPOSIN C AND RELATED PROTEINS AND PEPTIDES FOR APPLICATION TO TRANSMEMBRANE DRUG DELIVERY SYSTEMS” (CHILDREN'S HOSPITAL MEDICAL CENTER, priority 2008, published 2012)
